Test results: patent US20190241648A1 (STATEN BIOTECHNOLOGY B V, published 2019)
Ends that are not written are not given here.

How the values were obtained:
Test in all cases: cyclic peptide substitution array
ApoC3 peptide W65G = biological target: T1, ApoC3 peptide W65G (human, not fully specified; cyclic (thioether))
T1 peptide: DKFSEFGDLDPEV
Text: (§1) S62 and D68 of mature huApoC3 were also highly conserved; substitution of S62 by A or V, and substitution of D68 by E or P, caused decrease of spot intensities by ˜60% or higher. […] Amino acid F64 was completely variable.
(§2) Pre: staining of one of the ApoC3 peptide microarrays was done with the secondary antibody goat anti-human IgG (Fe) DyLight680 (1:5000) and control antibody mouse monoclonal anti-HA (12CA5) DyLight800 (1:2000) to investigate background interactions of the secondary antibody with the antigen-derived peptides that could interfere with the main assays. Subsequent incubation of other ApoC3 peptide microarrays with antibody samples was followed by staining with secondary and control antibodies as well as read-out at scanning intensities of 7/7 (red/green). The additional HA peptides framing the peptide arrays were stained as internal quality control to confirm the assay quality and the peptide microarray integrity.

ApoC3 peptide V71N = biological target: T2, ApoC3 peptide V71N (human, thioether (positions not given here); also: cyclic (thioether), ring places not given here)
T2 peptide: DKFSEFWDLDPEN
Text: as §1, §2

ApoC3 peptide P69L = biological target: T3, ApoC3 peptide P69L (human, not fully specified; cyclic (thioether))
T3 peptide: DKFSEFWDLDLEV
Text: as §1, §2

ApoC3 peptide F61T = biological target: T4, ApoC3 peptide F61T (human, cyclic (thioether))
T4 peptide: DKTSEFWDLDPEV
Text: as §1, §2

ApoC3 peptide D59M = biological target: T5, ApoC3 peptide D59M (human, thioether (positions not given here); not fully specified (C-terminus, bridges))
T5 peptide: MKFSEFWDLDPEV
Text: as §1, §2

ApoC3 peptide V71Y = biological target: T6, ApoC3 peptide V71Y (human, not fully specified; cyclic (thioether))
T6 peptide: DKFSEFWDLDPEY
Text: as §1, §2

ApoC3 peptide P69V = biological target: T7, ApoC3 peptide P69V (human, not fully specified; cyclic (thioether))
T7 peptide: DKFSEFWDLDVEV
Text: as §1, §2

ApoC3 peptide D68L = biological target: T8, ApoC3 peptide D68L (human, cyclic (thioether))
T8 peptide: DKFSEFWDLLPEV
Text: as §1, §2

ApoC3 peptide E63H = biological target: T9, ApoC3 peptide E63H (human, cyclic (thioether))
T9 peptide: DKFSHFWDLDPEV
Text: as §1, §2

ApoC3 peptide S62T = biological target: T10, ApoC3 peptide S62T (human, thioether (positions not given here); also: cyclic (thioether), ring places not given here)
T10 peptide: DKFTEFWDLDPEV
Text: as §1, §2

ApoC3 peptide F61H = biological target: T11, ApoC3 peptide F61H (human, cyclic (thioether))
T11 peptide: DKHSEFWDLDPEV
Text: as §1, §2

ApoC3 peptide F64V = biological target: T12, ApoC3 peptide F64V (human, thioether (positions not given here); not fully specified (bridges); also: cyclic (thioether), positions not given here)
T12 peptide: DKFSEVWDLDPEV
Text: as §1, §2

ApoC3 peptide F61D = biological target: T13, ApoC3 peptide F61D (human, cyclic (thioether))
T13 peptide: DKDSEFWDLDPEV
Text: as §1, §2

ApoC3 peptide D59L = biological target: T14, ApoC3 peptide D59L (human, thioether (positions not given here); not fully specified (C-terminus, bridges))
T14 peptide: LKFSEFWDLDPEV
Text: as §1, §2

ApoC3 peptide P69G = biological target: T15, ApoC3 peptide P69G (human, not fully specified; cyclic (thioether))
T15 peptide: DKFSEFWDLDGEV
Text: as §1, §2

ApoC3 peptide W65Q = biological target: T16, ApoC3 peptide W65Q (human, cyclic (thioether))
T16 peptide: DKFSEFQDLDPEV
Text: as §1, §2

ApoC3 peptide F64N = biological target: T17, ApoC3 peptide F64N (human, thioether (positions not given here); not fully specified (bridges); also: cyclic (thioether), positions not given here)
T17 peptide: DKFSENWDLDPEV
Text: as §1, §2

ApoC3 peptide V71F = biological target: T18, ApoC3 peptide V71F (human, thioether (positions not given here); also: cyclic (thioether), ring places not given here)
T18 peptide: DKFSEFWDLDPEF
Text: as §1, §2

ApoC3 peptide L67D = biological target: T19, ApoC3 peptide L67D (human, thioether (positions not given here); not fully specified (bridges); also: thioether between a C-terminal Cys side chain and a modified N-terminus, the Cys is not in the chain)
T19 peptide: DKFSEFWDDDPEV
Text: as §1, §2

ApoC3 peptide E70W = biological target: T20, ApoC3 peptide E70W (human, cyclic (thioether))
T20 peptide: DKFSEFWDLDPWV
Text: as §1, §2

ApoC3 peptide V71G = biological target: T21, ApoC3 peptide V71G (human, thioether (positions not given here); also: cyclic (thioether), ring places not given here)
T21 peptide: DKFSEFWDLDPEG
Text: as §1, §2

ApoC3 peptide W65I = biological target: T22, ApoC3 peptide W65I (human, cyclic (thioether))
T22 peptide: DKFSEFIDLDPEV
Text: as §1, §2

ApoC3 peptide S62Y = biological target: T23, ApoC3 peptide S62Y (human, thioether (positions not given here); also: cyclic (thioether), ring places not given here)
T23 peptide: DKFYEFWDLDPEV
Text: as §1, §2

ApoC3 peptide L67W = biological target: T24, ApoC3 peptide L67W (human, thioether (positions not given here); not fully specified (bridges); also: thioether between a C-terminal Cys side chain and a modified N-terminus, the Cys is not in the chain)
T24 peptide: DKFSEFWDWDPEV
Text: as §1, §2

ApoC3 peptide D66G = biological target: T25, ApoC3 peptide D66G (human, not fully specified; cyclic (thioether))
T25 peptide: DKFSEFWGLDPEV
Text: as §1, §2

ApoC3 peptide D59F = biological target: T26, ApoC3 peptide D59F (human, thioether (positions not given here); not fully specified (C-terminus, bridges))
T26 peptide: FKFSEFWDLDPEV
Text: as §1, §2

ApoC3 peptide E70L = biological target: T27, ApoC3 peptide E70L (human, cyclic (thioether))
T27 peptide: DKFSEFWDLDPLV
Text: as §1, §2

ApoC3 peptide D66F = biological target: T28, ApoC3 peptide D66F (human, not fully specified; cyclic (thioether))
T28 peptide: DKFSEFWFLDPEV
Text: as §1, §2

ApoC3 peptide V71T = biological target: T29, ApoC3 peptide V71T (human, not fully specified; cyclic (thioether))
T29 peptide: DKFSEFWDLDPET
Text: as §1, §2

ApoC3 peptide F64L = biological target: T30, ApoC3 peptide F64L (human, thioether (positions not given here); not fully specified (bridges); also: cyclic (thioether), positions not given here)
T30 peptide: DKFSELWDLDPEV
Text: as §1, §2

% of binding to wild-type peptide (ApoC3 peptide W65G): 0%
% of binding to wild-type peptide (ApoC3 peptide V71N): 86.6%
% of binding to wild-type peptide (ApoC3 peptide P69L): 16.7%
% of binding to wild-type peptide (ApoC3 peptide F61T): 40.3%
% of binding to wild-type peptide (ApoC3 peptide D59M): 57.7%
% of binding to wild-type peptide (ApoC3 peptide V71Y): 87.4%
% of binding to wild-type peptide (ApoC3 peptide P69V): 55.2%
% of binding to wild-type peptide (ApoC3 peptide D68L): 0%
% of binding to wild-type peptide (ApoC3 peptide E63H): 49.9%
% of binding to wild-type peptide (ApoC3 peptide S62T): 215%
% of binding to wild-type peptide (ApoC3 peptide F61H): 12.1%
% of binding to wild-type peptide (ApoC3 peptide F64V): 117%
% of binding to wild-type peptide (ApoC3 peptide F61D): 16%
% of binding to wild-type peptide (ApoC3 peptide D59L): 33.6%
% of binding to wild-type peptide (ApoC3 peptide P69G): 24.6%
% of binding to wild-type peptide (ApoC3 peptide W65Q): 0%
% of binding to wild-type peptide (ApoC3 peptide F64N): 234%
% of binding to wild-type peptide (ApoC3 peptide V71F): 81.4%
% of binding to wild-type peptide (ApoC3 peptide L67D): 0.99%
% of binding to wild-type peptide (ApoC3 peptide E70W): 35.4%
% of binding to wild-type peptide (ApoC3 peptide V71G): 91.9%
% of binding to wild-type peptide (ApoC3 peptide W65I): 0%
% of binding to wild-type peptide (ApoC3 peptide S62Y): 0%
% of binding to wild-type peptide (ApoC3 peptide L67W): 1.45%
% of binding to wild-type peptide (ApoC3 peptide D66G): 0%
% of binding to wild-type peptide (ApoC3 peptide D59F): 31.6%
% of binding to wild-type peptide (ApoC3 peptide E70L): 59.1%
% of binding to wild-type peptide (ApoC3 peptide D66F): 0%
% of binding to wild-type peptide (ApoC3 peptide V71T): 96.7%
% of binding to wild-type peptide (ApoC3 peptide F64L): 118%
B1: Llama antibody 5E5 (antibody, V domains shown)
VH: QLQLVESGGGLVQPGGSLRLSCAASGFTFGTYSMRWVRQVPRKALEWVSSISTDGGGTAYRDSVKGRFTISRDNAKNTLYLQMNNLKPEDTAIYYCVIAGYSDWGQGTQVTVSS
VL: ATMLTQSPGSLSVVPGESASISCKTSQGLVHSDGKTYFYWFLQKPGQSPQQLIYQVSNRASGVPDRFTGSGSGTDFTLKISGVKAEDAGVYYCAQGTYYPHTFGSGTRLEIK
notes: detected with goat anti-human IgG (Fc); also called mAb 5E5
